Test results reported in patent publication US20160144003A1 (Scripps Research, published 2016).
Where a chain is given by its changes, count along the chain named. Names may count otherwise.

T1: human GlyRS P234KY mutant (human, UniProt P41250 55-739)
T1 sequence: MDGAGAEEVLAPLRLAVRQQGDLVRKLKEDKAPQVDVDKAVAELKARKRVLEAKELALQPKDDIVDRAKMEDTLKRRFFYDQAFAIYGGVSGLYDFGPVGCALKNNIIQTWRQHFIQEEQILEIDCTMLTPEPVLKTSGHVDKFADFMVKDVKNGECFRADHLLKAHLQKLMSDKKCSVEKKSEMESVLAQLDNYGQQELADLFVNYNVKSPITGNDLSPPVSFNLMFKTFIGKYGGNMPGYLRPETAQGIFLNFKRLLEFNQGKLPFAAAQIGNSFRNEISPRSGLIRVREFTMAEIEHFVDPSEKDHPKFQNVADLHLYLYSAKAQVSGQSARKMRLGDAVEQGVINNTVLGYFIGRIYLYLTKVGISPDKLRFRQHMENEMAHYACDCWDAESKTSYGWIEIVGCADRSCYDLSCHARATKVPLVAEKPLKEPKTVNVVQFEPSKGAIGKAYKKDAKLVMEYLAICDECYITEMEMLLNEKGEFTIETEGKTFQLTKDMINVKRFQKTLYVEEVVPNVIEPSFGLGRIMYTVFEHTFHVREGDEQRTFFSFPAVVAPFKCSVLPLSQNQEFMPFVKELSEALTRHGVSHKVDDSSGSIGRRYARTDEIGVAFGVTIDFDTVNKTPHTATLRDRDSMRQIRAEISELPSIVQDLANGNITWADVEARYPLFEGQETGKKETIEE

B1: wild-type human glycyl-tRNA synthetase (GlyRS) (enzyme)
chain: MDGAGAEEVLAPLRLAVRQQGDLVRKLKEDKAPQVDVDKAVAELKARKRVLEAKELALQPKDDIVDRAKMEDTLKRRFFYDQAFAIYGGVSGLYDFGPVGCALKNNIIQTWRQHFIQEEQILEIDCTMLTPEPVLKTSGHVDKFADFMVKDVKNGECFRADHLLKAHLQKLMSDKKCSVEKKSEMESVLAQLDNYGQQELADLFVNYNVKSPITGNDLSPPVSFNLMFKTFIGPGGNMPGYLRPETAQGIFLNFKRLLEFNQGKLPFAAAQIGNSFRNEISPRSGLIRVREFTMAEIEHFVDPSEKDHPKFQNVADLHLYLYSAKAQVSGQSARKMRLGDAVEQGVINNTVLGYFIGRIYLYLTKVGISPDKLRFRQHMENEMAHYACDCWDAESKTSYGWIEIVGCADRSCYDLSCHARATKVPLVAEKPLKEPKTVNVVQFEPSKGAIGKAYKKDAKLVMEYLAICDECYITEMEMLLNEKGEFTIETEGKTFQLTKDMINVKRFQKTLYVEEVVPNVIEPSFGLGRIMYTVFEHTFHVREGDEQRTFFSFPAVVAPFKCSVLPLSQNQEFMPFVKELSEALTRHGVSHKVDDSSGSIGRRYARTDEIGVAFGVTIDFDTVNKTPHTATLRDRDSMRQIRAEISELPSIVQDLANGNITWADVEARYPLFEGQETGKKETIEE
notes: Used as a GlyRS-His fusion protein in the neuropilin assays; also called WT GlyRS; WT; not shown: His tag
B2: human GlyRS G598A mutant (enzyme)
chain: B1 chain with G598A
notes: Only in the dimerization measurement (sedimentation equilibrium); also called G598A GlyRS; not shown: the tag is not described
B3: human GlyRS G240R mutant (enzyme)
chain: B1 chain with G240R
notes: GlyRS-His fusion protein in the pull-down and cell assays; also called G240R GlyRS; not shown: His tag
B4: human GlyRS G526R mutant (enzyme)
chain: B1 chain with G526R
notes: GlyRS-His fusion protein in the pull-down assay; also called G526R GlyRS; not shown: His tag
B5: human GlyRS S581L mutant (enzyme)
chain: B1 chain with S581L
notes: also called S581L GlyRS; not shown: His tag
B6: human GlyRS L129P mutant (enzyme)
chain: B1 chain with L129P
notes: also called L129P GlyRS; L129P-His; not shown: His tag
B7: recombinant neuropilin-1/Fc extracellular domain chimeric protein (R&D systems) (Fc fusion)
chain: FRSDKCGGTIKIENPGYLTSPGYPHSYHPSEKCEWLIQAPEPYQRIMINFNPHFDLEDRDCKYDYVEVIDGENEGGRLWGKFCGKIAPSPVVSSGPFLFIKFVSDYETHGAGFSIRYEIFKRGPECSQNYTAPTGVIKSPGFPEKYPNSLECTYIIFAPKMSEIILEFESFDLEQDSNPPGGVFCRYDRLEIWDGFPEVGPHIGRYCGQKTPGRIRSSSGILSMVFYTDSAIAKEGFSANYSVLQSSISEDFKCMEALGMESGEIHSDQITASSQYGTNWSVERSRLNYPENGWTPGEDSYREWIQVDLGLLRFVTAVGTQGAISKETKKKYYVKTYRVDISSNGEDWITLKEGNKAIIFQGNTNPTDVVFGVFPKPLITRFVRIKPASWETGISMRFEVYGCKITDYPCSGMLGMVSGLISDSQITASNQGDRNWMPENIRLVTSRTGWALPPSPHPYINEWLQVDLGDEKIVRGVIIQGGKHRENKVFMRKFKIAYSNNGSDWKMIMDDSKRKAKSFEGNNNYDTPELRAFTPLSTRFIRIYPERATHSGLGLRMELLGCEVEVPTAGPTTPNGNPVDECDDDQANCHSGTGDDFQLTGGTTVLATEKPTIIDSTIQSEFPTYGFNCEFGWGSHKTFCHWEHDSHAQLRWRVLTSKTGPIQDHTGDGNFIYSQADENQKGKVARLVSPVVYSQSSAHCMTFWYHMSGSHVGTLRVKLHYQKPEEYDQLVWMVVGHQGDHWKEGRVLLHKSLKLYQVIFEGEIGKGNLGGIAVDDISINNHIPQEDCAKPTDLDKKNTEIKIDETGSTPGYEEGKGDKNISRKPGNVLKTLDPI

Key:
[1] = target: T2, GFP-neuropilin (NRP1) fusion protein on transfected cells; test: cell counts of confocal images, N2a cells expressing GFP-NRP1 incubated with GlyRS
T2 construct: whole, on cells; also called GFP-NRP1; NRP1-EGFP
Procedure: Confocal microscopy analysis was performed to assess the influence of GlyRS and CMT-associated GlyRS mutants on neuropilin-mediated neurite outgrowth. Mouse neuroblastoma N2a cells were transfected with either control pEGFP or NRP1-EGFP. After 24 hours, the cells were plated onto Fibronectin coated coverslips. Then N2a cells were then incubated with or without 200 nM wild-type GlyRS or CMT-associated GlyRS mutants (L129P, G240R, G526R) at 4° C. for 1 hour. Cells were then washed three times with DPBS buffer and fixed with 4% formaldehyde. The coverslips were mounted with Prolong Gold Antifade Reagent with DAPI (invitrogen) at 25° C. for overnight. Images were then taken using the Bio-Rad (Zeiss) Radiance 2100 Rainbow laser scanning confocal microscope (LSCM).

[2] = target: the molecule itself; test: sedimentation equilibrium AUC, monomer-dimer self-association
Procedure: FIGS. 8A-8F show sedimentation equilibrium analysis of WT and CMT-causing mutant human GlyRS proteins. Three cells containing different concentrations of each protein sample were centrifuged at 9000 rpm (solid curved line), 14000 rpm (mixed-dash curved line), and 19000 rpm (dash curved line). Absorbance data for each cell was collected at 280 nm and 230 nm wavelength. The meniscus (vertical dot-dash line) in each cell was set manually, while the bottom (vertical dash line) was allowed to float. Data within the fit limits (vertical solid lines) was globally fitted to the monomer-dimer self-association model in SEDPHAT. Data beyond approximately 1.5 absorbance was omitted in case of non-linearity of the detection instrumentation. The fits for the 9000, 14000, and 19000 rpm data are represented by the solid, mixed dash, and dash lines respectively.
WT and mutant GlyRSs were cloned and expressed as described (see Xie et al., Acta Crystallogr Sect F Struct Biol Cryst Commun 62:1243-1246, 2006), and purified to more than 99% homogeneity in three steps: nickel affinity, Mono Q and size exclusion chromatography. Sedimentation equilibrium experiments were performed in a Beckman Optima XL-1 analytical ultracentrifuge with integrated optical systems. All protein samples (0.5 μM, 1.25 μM, 2.5 μM) were prepared in DPBS buffer (2.67 mM potassium chloride, 1.47 mM potassium phosphate monobasic, 137.93 mM sodium chloride and 8.06 mM sodium phosphate dibasic, pH 7.2) and purified by size exclusion chromatography immediately prior to centrifugation. The buffer density and viscosity, and the protein partial specific volume were determined by SEDPHAT (see Lebowitz et al., Protein Sci. 11:2067-2079, 2002). Samples (180 μL) in two-channel cells were centrifuged in a Beckman An-60 Ti rotor at speeds of […] at 4° C. Equilibrium was reached after 36 hours for each speed and verified by comparison with a second scan taken every 6 hours. Data was collected at 280 nm and […]. Data sets consisting of 18 curves per protein (3 concentrations, 3 rotor speeds and 2 wavelengths each) were analyzed by global fitting to the monomer-dimer self-association model using the program SEDPHAT (Id.).

[3] = target: T1, human GlyRS P234KY mutant; test: bio-layer interferometry (Octet RED), NRP1-Fc on Protein G biosensors, global 1:1 fit of three concentrations
[4] = target: B6; test: bio-layer interferometry (Octet RED), NRP1-Fc on Protein G biosensors, global 1:1 fit of five concentrations
Procedure: FIGS. 15A-15C show the binding affinity between various GlyRS polypeptides and neuropilin-1 (NRP-1). In FIG. 15A, the binding between NRP-1 and GlyRS (wild-type (WT), CMT-associated mutant L129P, and CMT-associated mutant P234KY) at 1 μM was compared by bio-layer interferometry in Octet RED system. No binding was detected between NRP-1 and WT GlyRS, but strong binding was detected between NRP-1 and each of the CMT-associated mutants L129P and P234KY.
The binding constants between GlyRS CMT mutants (L129P and P234KY) and Neuropilin-1 (NRP1) were measured using Octet RED (ForteBio, Inc.). Octet RED utilizes bio-layer interferometry (BLI) technology that enables real-time analysis of protein-protein interactions on the surface of a fiber optic biosensor. The protein of interest is firstly immobilized on the biosensor and then exposed to the protein analyte in solution. The binding of two proteins changes the optical properties of the biosensor, leading to a shift in the wavelength of reflected light. This shift in wavelength allows the measurement of the determination of the binding constant.

T2 sequence (O14786 22-923): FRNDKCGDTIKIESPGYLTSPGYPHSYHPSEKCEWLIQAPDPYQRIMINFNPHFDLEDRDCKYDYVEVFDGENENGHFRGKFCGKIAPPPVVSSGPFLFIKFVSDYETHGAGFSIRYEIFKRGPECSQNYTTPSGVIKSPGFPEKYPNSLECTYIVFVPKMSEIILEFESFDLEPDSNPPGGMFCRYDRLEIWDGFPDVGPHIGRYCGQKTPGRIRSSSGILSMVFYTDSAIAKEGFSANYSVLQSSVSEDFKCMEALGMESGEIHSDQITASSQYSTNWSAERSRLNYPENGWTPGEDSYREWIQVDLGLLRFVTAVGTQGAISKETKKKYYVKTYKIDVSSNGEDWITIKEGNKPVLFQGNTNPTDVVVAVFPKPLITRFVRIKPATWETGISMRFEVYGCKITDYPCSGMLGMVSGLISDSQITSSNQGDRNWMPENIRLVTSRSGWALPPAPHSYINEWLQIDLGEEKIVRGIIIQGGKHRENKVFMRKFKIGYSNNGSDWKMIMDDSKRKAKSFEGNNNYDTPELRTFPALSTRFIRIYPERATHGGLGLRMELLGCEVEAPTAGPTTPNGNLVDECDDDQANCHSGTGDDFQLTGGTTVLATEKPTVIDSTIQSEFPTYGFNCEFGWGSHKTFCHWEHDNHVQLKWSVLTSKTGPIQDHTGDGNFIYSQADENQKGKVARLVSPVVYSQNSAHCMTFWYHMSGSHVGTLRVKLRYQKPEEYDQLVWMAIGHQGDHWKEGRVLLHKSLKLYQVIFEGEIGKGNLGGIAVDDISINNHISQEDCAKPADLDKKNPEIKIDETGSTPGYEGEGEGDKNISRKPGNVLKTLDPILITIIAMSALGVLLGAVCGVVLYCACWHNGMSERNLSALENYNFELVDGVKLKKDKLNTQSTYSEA

Row | Cell number % [1] [%] | Kd [3] [nM] | Kd [4] [nM] | Binder | Kd [2] [nM] | fold increase in Kd of dimerization relative to WT GlyRS [2] [fold] | fold decrease in Kd of dimerization relative to WT GlyRS [2] [fold]
1 | 8.6 | – | – | B1 | 560 | – | –
2 | – | – | – | B2 | 390 | – | –
3 | 42 | – | – | B3 | 11000 | 20 | –
4 | 20.7 | – | – | B4 | – | – | 3 to 4
5 | – | – | – | B5 | 190 | – | 3 to 4
6 | 37.7 | – | – | B6 | 41000 | 73 | –
7 | – | 162 | 36.8 | B7 | – | – | –
